# According to PMC3351150:
# Biological target: controller protein C.Esp1396I
# Assay: crystal structure
substance,measurement,value
controller protein C.Esp1396I (natural protein),stoichiometry N,2
